Data set [1] can be described thus: cell surface flow cytometry, mAb BH026, Expi293. As to conditions: control: unmutated MeV-H genotype A. For orientation: In flow cytometry, cells or beads pass a laser one at a time.
The nature of data set [2]: Western blot of transfected Vero cell lysates (total). As to conditions: control: unmutated MeV-H genotype A.

B1: MeV-H genotype A (measles virus envelope hemagglutinin protein): N200D (protein)
parent chain: MSPQRDRINAFYKDNPHPKGSRIVINREHLMIDRPYVLLAVLFVMFLSLIGLLAIAGIRLHRAAIYTAEIHKSLSTNLDVTNSIEHQVKDVLTPLFKIIGDEVGLRTPQRFTDLVKLISDKIKFLNPDREYDFRDLTWCINPPERIKLDYDQYCADVAAEELMNALVNSTLLETRTTNQFLAVSKGNCSGPTTIRGQFSNMSLSLLDLYLGRGYNVSSIVTMTSQGMYGGTYLVEKPNLSSKRSELSQLSMYRVFEVGVIRNPGLGAPVFHMTNYLEQPVSNDLSNCMVALGELKLAALCHGEDSITIPYQGSGKGVSFQLVKLGVWKSPTDMQSWVPLSTDDPVIDRLYLSSHRGVIADNQAKWAVPTTRTDDKLRMETCFQQACKGKIQALCENPEWAPLKDNRIPSYGVLSVDLSLTVELKIKIASGFGPLITHGSGMDLYKSNHNNVYWLTIPPMKNLALGVINTLEWIPRFKVSPYLFTVPIKEAGEDCHAPTYLPAEVDGDVKLSSNLVILPGQDLQYVLATYDTSRVEHAVVYYVYSPSRSFSYFYPFRLPIKGVPIELQVECFTWDQKLWCRHFCVLADSESGGHITHSGMVGMGVSCTVTREDGTNRR
With B1, the expression_or_secretion result in data set [1] (glycan lost) and in data set [2] (glycan lost) was “decreases” in each case.

B2: MeV-H genotype A (measles virus envelope hemagglutinin protein): D416N (protein)
parent chain: B1 parent chain
Regarding B2, the expression_or_secretion entry in data set [1] (glycan gained) and in data set [2] (glycan gained) was “no change” each time.

Source of the values: publication PMC5821319.
